Consider five variants from IntAct's records for PubMed 17563362.

Sequences and labels used below:
B1: CAP-Gly domain-containing linker protein 1 (Homo sapiens), P30622-2 (parent)
chain: MSMLKPSGLKAPTKILKPGSTALKTPTAVVAPVEKTISSEKASSTPSSETQEEFVDDFRVGERVWVNGNKPGFIQFLGETQFAPGQWAGIVLDEPIGKNDGSVAGVRYFQCEPLKGIFTRPSKLTRKVQAEDEANGLQTTPASRATSPLCTSTASMVSSSPSTPSNIPQKPSQPAAKEPSATPPISNLTKTASESISNLSEAGSIKKGERELKIGDRVLVGGTKAGVVRFLGETDFAKGEWCGVELDEPLGKNDGAVAGTRYFQCQPKYGLFAPVHKVTKIGFPSTTPAKAKANAVRRVMATTSASLKRSPSASSLSSMSSVASSVSSRPSRTGLLTETSSRYARKISGTTALQEALKEKQQHIEQLLAERDLERAEVAKATSHVGEIEQELALARDGHDQHVLELEAKMDQLRTMVEAADREKVELLNQLEEEKRKVEDLQFRVEEESITKGDLEVATVSEKSRIMELEKDLALRVQEVAELRRRLESNKPAGDVDMSLSLLQEISSLQEKLEVTRTDHQREITSLKEHFGAREETHQKEIKALYTATEKLSKENESLKSKLEHANKENSDVIALWKSKLETAIASHQQAMEELKVSFSKGLGTETAEFAELKTQIEKMRLDYQHEIENLQNQQDSERAAHAKEMEALRAKLMKVIKEKENSLEAIRSKLDKAEDQHLVEMEDTLNKLQEAEIKVKELEVLQAKCNEQTKVIDNFTSQLKATEEKLLDLDALRKASSEGKSEMKKLRQQLEAAEKQIKHLEIEKNAESSKASSITRELQGRELKLTNLQENLSEVSQVKETLEKELQILKEKFAEASEEAVSVQRSMQETVNKLHQKEEQFNMLSSDLEKLRENLADMEAKFREKDEREEQLIKAKEKLENDIAEIMKMSGDNSSQLTKMNDELRLKERDVEELQLKLTKANENASFLQKSIEDMTVKAEQSQQEAAKKHEEEKKELERKLSDLEKKMETSHNQCQELKARYERATSETKTKHEEILQNLQKTLLDTEDKLKGAREENSGLLQELEELRKQADKAKAAQTAEDAMQIMEQMTKEKTETLASLEDTKQTNAKLQNELDTLKENNLKNVEELNKSKELLTVENQKMEEFRKEIETLKQAAAQKSQQLSALQEENVKLAEELGRSRDEVTSHQKLEEERSVLNNQLLEMKKRESKFIKDADEEKASLQKSISITSALLTEKDAELEKLRNEVTVLRGENASAKSLHSVVQTLESDKVKLELKVKNLELQLKENKRQLSSSSGNTDTQADEDERAQESQIDFLNSVIVDLQRKNQDLKMKVEMMSEAALNGNGDDLNNYDSDDQEKQSKKKPRLFCDICDCFDLHDTEDCPTQAQMSEDPPHSTHHGSRGEERPYCEICEMFGHWATNCNDDETF

In one assay the parent is B1. Particulars: with tba1a_human TUBA1A.
As to N253A, the “effect of a mutation on the interaction” value is “decreasing interaction strength”. The same measure, in the same setting: the value for N253D was “decreasing interaction strength”.

A further assay covers variants of B1. Particulars: with mare1_human MAPRE1, Q15691.
Sequence of mare1_human MAPRE1, Q15691 (Q15691 whole entry): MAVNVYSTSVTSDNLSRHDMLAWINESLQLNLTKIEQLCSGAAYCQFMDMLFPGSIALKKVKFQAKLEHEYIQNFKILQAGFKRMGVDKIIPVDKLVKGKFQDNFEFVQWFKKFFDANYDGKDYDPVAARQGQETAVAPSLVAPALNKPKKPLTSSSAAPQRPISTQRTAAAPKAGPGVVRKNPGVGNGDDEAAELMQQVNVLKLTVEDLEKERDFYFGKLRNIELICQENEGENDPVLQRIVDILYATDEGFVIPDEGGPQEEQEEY
Turning to K277A, the “effect of a mutation on the interaction” value was “decreasing interaction strength”. Same read-out and setting: under K252A stands “disrupting interaction strength”; under K224A, “disrupting interaction strength”.
